Measurements: patent publication US5645817, “Granulocyte-binding antibody constructs, their preparation and use” (Behringwerke Aktiengesellschaft, dated 1997)

Target: carcinoembryonic antigen (CEA) (Homo sapiens (Human), UniProt P06731)
Test: characterisation according to Example 2 (ELISA on CEA); told in words
Experimental: Supernatants from BHK cells, which had been transfected with the DNA constructs of the second version of the hum 250/183, were tested for their content of humMab and for the specificity of the humMab.
However, the polystyrene plates were coated with 75 μl of CEA at a concentration of 15 μg/ml. Equal volumes of different concentrations (consecutively dilutions 1:2)

B1: hum 250/183 (second version of the humanized Mab BW 250/183) (antibody, V domains shown)
VH: QVQLQESGPGLVRPSQTLSLTCTVSGFSDYYMNWVRQPPGRGLEWIGFISNKPNGHTTEYSASVKGRVTMLRDTSKNQFSLRLSSVTAADTAVYYCARDKGIRWYFDVWGQGSLVTVSS
VL: DIQMTQSPSSLSASVGDRVTITCRASSSVSYMHWYQQKPGKAPKPLIYATSNLASGVPSRFSGSGSGTDFTFTISSLQPEDIATYYCQQWSSNPLTFGQGTKVEIKR
  binding result: binds
